Laboratory results published in patent publication US8163700B2, “Inhibitors of myelin-associated glycoprotein (MAG) activity for regulating neural growth and regeneration” (Research Foundation of City University of New York, priority 2002, dated 2012).

T1: Nogo (Homo sapiens, UniProt Q9NQC3, S458P)
T1 sequence (Q9NQC3 1-1192 S458P): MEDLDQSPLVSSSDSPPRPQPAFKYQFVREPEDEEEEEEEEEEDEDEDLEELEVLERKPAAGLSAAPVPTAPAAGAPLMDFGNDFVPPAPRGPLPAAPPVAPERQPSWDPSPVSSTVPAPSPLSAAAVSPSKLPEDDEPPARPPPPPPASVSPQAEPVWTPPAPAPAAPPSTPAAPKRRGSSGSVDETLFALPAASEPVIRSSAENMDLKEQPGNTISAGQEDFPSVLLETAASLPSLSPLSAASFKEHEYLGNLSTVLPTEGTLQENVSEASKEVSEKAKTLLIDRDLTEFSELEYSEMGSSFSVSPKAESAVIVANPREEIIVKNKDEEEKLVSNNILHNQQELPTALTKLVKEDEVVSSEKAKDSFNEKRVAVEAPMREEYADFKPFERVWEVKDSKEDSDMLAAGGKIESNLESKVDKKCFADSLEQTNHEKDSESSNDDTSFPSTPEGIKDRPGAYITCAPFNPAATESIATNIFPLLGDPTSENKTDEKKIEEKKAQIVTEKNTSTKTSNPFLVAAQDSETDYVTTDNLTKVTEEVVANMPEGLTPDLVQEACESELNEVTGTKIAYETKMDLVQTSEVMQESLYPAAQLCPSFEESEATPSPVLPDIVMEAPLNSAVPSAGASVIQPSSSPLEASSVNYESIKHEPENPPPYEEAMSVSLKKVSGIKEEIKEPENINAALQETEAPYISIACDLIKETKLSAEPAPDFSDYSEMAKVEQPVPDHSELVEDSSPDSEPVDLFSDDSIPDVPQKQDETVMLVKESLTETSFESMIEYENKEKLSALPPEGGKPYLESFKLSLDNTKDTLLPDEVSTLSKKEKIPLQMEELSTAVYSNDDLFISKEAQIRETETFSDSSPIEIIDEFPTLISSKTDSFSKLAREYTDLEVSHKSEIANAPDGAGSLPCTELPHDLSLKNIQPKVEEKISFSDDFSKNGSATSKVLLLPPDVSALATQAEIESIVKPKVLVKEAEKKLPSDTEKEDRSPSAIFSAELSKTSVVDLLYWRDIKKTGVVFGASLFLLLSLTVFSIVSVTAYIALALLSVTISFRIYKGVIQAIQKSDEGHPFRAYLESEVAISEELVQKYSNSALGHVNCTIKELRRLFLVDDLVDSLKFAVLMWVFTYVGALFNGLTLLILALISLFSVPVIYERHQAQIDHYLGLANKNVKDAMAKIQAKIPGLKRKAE

T2: NgR (Homo sapiens, UniProt Q9BZR6)
T2 sequence (Q9BZR6 27-447): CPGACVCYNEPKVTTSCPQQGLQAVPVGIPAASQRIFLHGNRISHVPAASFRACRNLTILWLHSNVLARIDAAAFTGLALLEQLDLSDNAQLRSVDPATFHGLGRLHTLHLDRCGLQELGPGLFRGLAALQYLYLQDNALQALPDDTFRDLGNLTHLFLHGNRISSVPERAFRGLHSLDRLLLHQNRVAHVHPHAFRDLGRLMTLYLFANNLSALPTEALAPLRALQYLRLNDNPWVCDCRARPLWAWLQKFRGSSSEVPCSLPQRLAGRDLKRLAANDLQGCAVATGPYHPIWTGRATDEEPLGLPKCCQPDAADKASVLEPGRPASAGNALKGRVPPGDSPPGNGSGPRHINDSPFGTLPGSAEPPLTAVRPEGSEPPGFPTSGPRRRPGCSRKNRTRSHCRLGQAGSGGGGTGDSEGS


Assays:
[1] = target: T1, Nogo; settings: described in the art; cited from earlier work
[2] = target: T2, NgR; settings: described in the art; cited from earlier work
[3] = system: cerebellar neurons; test: Neurite outgrowth of cerebellar neurons on CHO cell monolayers expressing MAG or truncated, deleted or chimeric MAG derivatives (FIG. 1); type: cell-based; settings: cerebellar neurons grown overnight on CHO cells expressing the construct, versus control-transfected CHO cells; GAP-43 staining
Method: FIG. 1 Inhibition of neurite outgrowth from cerebellar neurons by truncated MAG or chimeric MAG Cerebellar neurons were isolated (Example 1) and grown overnight on a monolayer of control-transfected CHO cells (clear bar) or a monolayer of CHO cells expressing wild-type MAG or truncated, deleted or chimeric MAG derivatives (grey bars). (See Example 2). Neurons were stained for GAP-43 antigen and neurite length was measured and the average length was calculated for 180-200 neurons (+/−SEM).
Cerebellar neurons were isolated essentially as described in Doherty et al., Nature, 343, pp. 464-66 (1990); Neuron, 5, pp. 209-19 (1990); and Kleitman et al., Culturing Nerve Cells, pp. 337-78, MIT Press, Cambridge, Mass./London, England (G. Banker and K. Goslin, Eds.) (1991). Briefly, for animals up to nine days of age, the cerebellum was removed from two animals, and placed in 5 ml of 0.025% trypsin in PBS, triturated, and incubated for a further 10 minutes (min) at 37° C. […]
Confluent monolayers of control, MAG-, truncated MAG- or chimeric MAG-Sn-expressing CHO cells were established over a 24-hour (h) period in individual chambers of an 8-well tissue culture slide (Lab-Tek). […] The length of the longest neurite for each GAP43-positive neuron was determined using the Biological Detection System image analysis program (Pittsburgh).

Molecule	inhibition of axonal outgrowth [1]	binding to NgR [2]	inhibition of neurite outgrowth by the expressed MAG construct [3]
Nogo-66 amino acid residues 31-55: prior-art peptide of Nogo-66 residues 31-55 (hNogo-A residues 1085-1109 of SEQ ID NO: 9) (EELVQKYSNSALGHVNCTIKELRRL; listed as Homo sapiens)	inhibit axonal outgrowth	can bind to NgR	–
MAG: full-length MAG containing all five Ig-like domains, expressed on CHO cells (protein, UniProt P20917 1-627, looked up, full-length, full-length MAG containing all five Ig-like domains, expressed on CHO cells) MIFLATLPLFWIMISASRGGHWGAWMPSTISAFEGTCVSIPCRFDFPDELRPAVVHGVWYFNSPYPKNYPPVVFKSRTQVVHESFQGRSRLLGDLGLRNCTLLLSTLSPELGGKYYFRGDLGGYNQYTFSEHSVLDIVNTPNIVVPPEVVAGTEVEVSCMVPDNCPELRPELSWLGHEGLGEPTVLGRLREDEGTWVQVSLLHFVPTREANGHRLGCQAAFPNTTLQFEGYASLDVKYPPVIVEMNSSVEAIEGSHVSLLCGADSNPPPLLTWMRDGMVLREAVAKSLYLDLEEVTPGEDGVYACLAENAYGQDNRTVELSVMYAPWKPTVNGTVVAVEGETVSILCSTQSNPDPILTIFKEKQILATVIYESQLQLELPAVTPEDDGEYWCVAENQYGQRATAFNLSVEFAPIILLESHCAAARDTVQCLCVVKSNPEPSVAFELPSRNVTVNETEREFVYSERSGLLLTSILTIRGQAQAPPRVICTSRNLYGTQSLELPFQGAHRLMWAKIGPVGAVVAFAILIAIVCYITQTRRKKNVTESSSFSGGDNPHVLYSPEFRISGAPDKYESEKQRLGSERRLLGLRGESPELDLSYSHSDLGKRPTKDSYTLTEELAEYAEIRVK	–	–	capable of inhibiting neurite outgrowth
